According to the supplement of paper PMC9233669:
This sample holds only a part of the variants without activity.

What was measured:
biotinyl-Phe-oxazolone = assay: self-aminoacylation, catalytic enhancement (BFO) (fold over background); higher = more active; k-Seq, kA / k0A0; sequences stand for … in GGGAAUGGAUCCACAUCUACGAAUUC…UUCACUGCAGACUUGACGAAGCUG
Method in brief: (§1)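 Mutagenized RNA pools (0.43 μM; 21-nt variable region) were treated with 2–1250 μM of each biotinyl-aminoacyl-oxazolone. Conditions were 50 μL HEPES/NaCl/KCl/MgCl2/CaCl2 buffer, 5% acetonitrile, pH 6.9–7.0, room temperature, 90 minutes. Catalytic enhancement, the median kA relative to the uncatalyzed rate, was derived from streptavidin capture, qPCR and Illumina sequencing.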

biotinyl-Trp-oxazolone = assay: self-aminoacylation, catalytic enhancement (BWO) (fold over background); higher = more active; k-Seq, kA / k0A0; sequences stand for … in GGGAAUGGAUCCACAUCUACGAAUUC…UUCACUGCAGACUUGACGAAGCUG
Method in brief: as §1

biotinyl-Met-oxazolone = assay: self-aminoacylation, catalytic enhancement (BMO) (fold over background); higher = more active; k-Seq, kA / k0A0; sequences stand for … in GGGAAUGGAUCCACAUCUACGAAUUC…UUCACUGCAGACUUGACGAAGCUG
Method in brief: as §1

biotinyl-Ile-oxazolone = assay: self-aminoacylation, catalytic enhancement (BIO) (fold over background); higher = more active; k-Seq, kA / k0A0; sequences stand for … in GGGAAUGGAUCCACAUCUACGAAUUC…UUCACUGCAGACUUGACGAAGCUG
Method in brief: as §1

biotinyl-Leu-oxazolone = assay: self-aminoacylation, catalytic enhancement (BLO) (fold over background); higher = more active; k-Seq, kA / k0A0; sequences stand for … in GGGAAUGGAUCCACAUCUACGAAUUC…UUCACUGCAGACUUGACGAAGCUG
Method in brief: as §1

biotinyl-Val-oxazolone = assay: self-aminoacylation, catalytic enhancement (BVO) (fold over background); higher = more active; k-Seq, kA / k0A0; sequences stand for … in GGGAAUGGAUCCACAUCUACGAAUUC…UUCACUGCAGACUUGACGAAGCUG
Method in brief: as §1

Sequence | self-aminoacylation (biotinyl-Phe-oxazolone) | self-aminoacylation (biotinyl-Trp-oxazolone) | self-aminoacylation (biotinyl-Met-oxazolone) | self-aminoacylation (biotinyl-Ile-oxazolone) | self-aminoacylation (biotinyl-Leu-oxazolone) | self-aminoacylation (biotinyl-Val-oxazolone)
AAGUUUGCGAAUACUCGCAAG [Fam3.1 aminoacylation ribozyme variant] | 3.35 | 2.24 | 1.13 | 1.36 | 1.4 | 0.993
AAGUUUGCGAAUAGUCGCCAG [Fam3.1 aminoacylation ribozyme variant] | 9.03 | 1.62 | 1.8 | 1.74 | 1.29 | 1.78
AAGUUUGCGAAUAGUCGCUAG [Fam3.1 aminoacylation ribozyme variant] | 3.9 | 1.4 | 1.45 | 1.38 | 0.918 | 1
AAGUUUGCGAAUAGUCGGAAG [Fam3.1 aminoacylation ribozyme variant] | 0.764 | 2.32 | 1.38 | 0.977 | 1.1 | 0.964
AAGUUUGCGAAUUGUCGCAAG [Fam3.1 aminoacylation ribozyme variant] | 6.83 | 2.19 | 2.15 | 1.77 | 1.94 | 2.23
AAGUUUGCGAGUAGUCGCAAG [Fam3.1 aminoacylation ribozyme variant] | 1.71 | 1.32 | 0.918 | 1.12 | 1.22 | 0.882
AAGUUUGCUAAAACUCGCAAG [Fam3.1 aminoacylation ribozyme variant] | 0.521 | 0.796 | 0.668 | 0.916 | 0.998 | 0.821
AAGUUUGCUAAAAGUAGCAAG [Fam3.1 aminoacylation ribozyme variant] | 1.04 | 1.03 | 1.16 | 1.02 | 0.818 | 0.783
AAGUUUGCUAAAAGUCGCAAG [Fam3.1 aminoacylation ribozyme variant] | 17.1 | 4.97 | 1.33 | 1.24 | 1.01 | 1.08
AAGUUUGCUAACAGACGCAAG [Fam3.1 aminoacylation ribozyme variant] | 1.06 | 0.444 | 0.478 | 0.512 | 0.38 | 0.733
AAGUUUGCUAACAGUCGCAUG [Fam3.1 aminoacylation ribozyme variant] | 0.642 | 1.11 | 0.804 | 0.963 | 0.89 | 0.899
AAGUUUGCUAACAGUCGCUAG [Fam3.1 aminoacylation ribozyme variant] | 1.36 | 0.96 | 0.738 | 0.756 | 0.823 | 0.899
AAGUUUGCUAAGAGGCGCAAG [Fam3.1 aminoacylation ribozyme variant] | 1.21 | 0.895 | 0.759 | 0.727 | 0.547 | 0.656
AAGUUUGCUAAGAGUCCCAAG [Fam3.1 aminoacylation ribozyme variant] | 1.48 | 1 | 0.787 | 0.788 | 0.765 | 0.672
AAGUUUGCUAAGAGUCGCAAC [Fam3.1 aminoacylation ribozyme variant] | 0.845 | 1.28 | 1.07 | 1.21 | 1.27 | 1.19
AAGUUUGCUAAGAGUCGCACG [Fam3.1 aminoacylation ribozyme variant] | 5.94 | 2.06 | 0.636 | 1.17 | 0.977 | 1.12
AAGUUUGCUAAGAGUCUCAAG [Fam3.1 aminoacylation ribozyme variant] | 1.02 | 1.01 | 0.651 | 0.81 | 0.775 | 0.823
AAGUUUGCUAAUAAUCCCAAG [Fam3.1 aminoacylation ribozyme variant] | 1.03 | 1.38 | 0.949 | 0.76 | 0.736 | 0.961
AAGUUUGCUAAUACUAGCAAG [Fam3.1 aminoacylation ribozyme variant] | 0.734 | 0.476 | 0.798 | 0.59 | 0.722 | 0.567
AAGUUUGCUAAUACUCGCAAG [Fam3.1 aminoacylation ribozyme variant] | 0.812 | 0.607 | 0.569 | 0.659 | 0.553 | 0.652
AAGUUUGCUAAUACUCGUAAG [Fam3.1 aminoacylation ribozyme variant] | 0.706 | 0.557 | 0.547 | 0.57 | 0.559 | 0.636
AAGUUUGCUAAUAGACUCAAG [Fam3.1 aminoacylation ribozyme variant] | 0.758 | 0.449 | 0.332 | 0.416 | 0.313 | 0.427
AAGUUUGCUAAUAGAUGCAAG [Fam3.1 aminoacylation ribozyme variant] | 0.814 | 0.784 | 0.789 | 0.954 | 0.82 | 0.911
AAGUUUGCUAAUAGCCGAAAG [Fam3.1 aminoacylation ribozyme variant] | 1.6 | 1.28 | 0.766 | 1.09 | 1.03 | 0.677
AAGUUUGCUAAUAGCCGCAGG [Fam3.1 aminoacylation ribozyme variant] | 0.671 | 0.916 | 0.745 | 0.792 | 0.765 | 0.853
